Patent US20020182172A1, “Water-soluble polymer conjugates of triazine derivatives” (Shearwater Corporation, priority 2000, published 2002)

Experiment: Stability study in D2O (formaldehyde release monitored by NMR; MALDI-TOF of hydrolyzed product)
Protocol: Compound III, V, and XIV (6 mg) were separately dissolved in 0.75 ml of D2O and stored at 37° C. The methylene peak disappearance as well as methyl peak shift were monitored by 300 MHz NMR over time. The half-life of the formaldehyde release reaction was monitored using first order kinetics.

2-mPEGyloxy5k-4,6-di-(N-methyl-N-hydroxymethylamino)-1,3,5-triazine [Compound III]
half-life (t1/2) of the formaldehyde release reaction: 81 h

2-mPEGyloxy350-4,6-di-(N-methyl-N-hydroxymethylamino)-1,3,5-triazine [V]
half-life (t1/2) of the formaldehyde release reaction: 81 h
dimerization (MALDI-TOF spectrum of hydrolyzed compound) (after hydrolysis in D2O at 37° C.): no detectable dimerization
